Data taken from US20230174641A1 (H LUNDBECK A S, published 2023).
Changes are numbered by the printed parent chain. Ends that are not written are not given here.

T1: human ACTH 1-39 (human)
T1 peptide: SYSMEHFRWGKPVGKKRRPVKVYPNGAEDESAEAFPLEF

T2: ACTH 1-24 (human)
T2 peptide: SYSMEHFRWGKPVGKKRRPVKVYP

T3: human ACTH 1-13 (human, ends and bridges not checked)
T3 construct: also called human alpha-MSH (ACTH 1-13); alpha-MSH
T3 peptide: SYSMEHFRWGKPV

T4: human ACTH 18-39 (human)
T4 construct: also called CLIP; CLIP (ACTH 18-39)
T4 peptide: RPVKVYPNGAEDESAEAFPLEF

T5: N-term biotinylated human ACTH 1-39 (human, N-terminal biotin)
T5 construct: also called huACTH 1-39
T5 peptide: T1 peptide

B1: Ab2 (antibody, human IgG1, kappa, N297A, V domains shown)
VH: QSVEESGGRLVTPGTPLTLTCTVSGFSLSKYDMIWVRQAPGKGLESIGIIYDDGDTYYASWAKGRFTISQTSTTVDLKIISPTTEDTATYFCVKGVSNIWGQGTLVTVSS
VL: DVVMTQTPASVEAAVGGTVTIKCQASQSISNYLAWYQQKTGQPPKLLIYSASTLASGVPSRFKGSGSGTEFTLTISDLECADAATYYCQSYEGSSSSSYGVGFGGGTEVVVKR
notes: rabbit/human chimeric antibody, made in HEK-293
B2: Ab3 (antibody, human IgG1, kappa, N297A, V domains shown)
VH: QSLEESGGRLVTPGTPLTLTCTVSGSSLSNFDMIWVRQAPGKGLESIGIIYDFGSTYYASWAKGRFTISRTSSTTVDLKIISPTIEDTATYFCVKGVSNIWGQGTLVTVSS
VL: B1 VL with Q27E, S28D, N31S, Y32N, T40L, T74A, E92D, V101I
notes: as for B1
B3: Ab5 (antibody, human IgG1, kappa, N297A, V domains shown)
VH: QSVEESGGRLVTPGTPLTLTCTVSGFSLSSYAMSWVRQAPGEGLEWIGIISDSGSTYYASWAKGRFTISKTSTTVDLKITSPTTEDTATYFCAREPEYGYDDYGDWVSDLWGQGTLVTVSS
VL: DIVMTQTPASVSEPVGGTVTIKCQASQSISSYLSWYQQKPGQPPKLLIYRASTLASGVPSRFKGSGSGTQFTLTISDLECADAATYYCQSYYYSSSITYRNAFGGGTEVVVKR
notes: as for B1
B4: Ab6 (antibody, human IgG1, kappa, N297A, V domains shown)
VH: B3 VH with S29T, S30D, I68F, K78R, D102E, Q113P
VL: DIVMTQTPASVEAAVGGAVTIKCQATQSIGNNLAWYQQKPGQPPKLLIYRASTLASGVPSRFKGSGSGTEFTLTISDLECADAATYYCQSYYYSSSITYHNAFGGGTEVVVKR
notes: as for B1

Key:
[1] = biological target: T1, human ACTH 1-39; assay: cell-based or functional assay
[2] = biological target: T1, human ACTH 1-39; assay: cell-based or functional assay
[3] = biological target: T1, human ACTH 1-39; assay: cell-based or functional assay
[4] = biological target: T2, ACTH 1-24; assay: cell-based or functional assay
[5] = biological target: T3, human ACTH 1-13; assay: SPR ProteOn, antibody immobilised
Procedure: (§1) Antibody was immobilized to the surface of general amine coupling (GLC or GLM) Chips (Bio-Rad). […] At the chosen concentrations of antigen (ranging from 454 ng/ml to 5.6 ng/ml) association times of 200 seconds and dissociation times of 30-200 minutes were used with the ProteOnTM Manager Software (v3.1.0.6, Bio-Rad) to group and fit data using a 1:1 Langmuir binding model. Surfaces were regenerated between analyte queries using 10 mM glycine at pH 2.0. Data repeated across a single density was averaged and a single KD and standard propagation of error calculated for each antibody.

[6] = biological target: T4, human ACTH 18-39; assay: SPR ProteOn, antibody immobilised
Procedure: as §1

[7] = biological target: T5, N-term biotinylated human ACTH 1-39; assay: ELISA, biotin-ACTH 1-39 on neutravidin plate
Procedure: All incubations were done at room temperature. […] The plates were then blocked using a blocking solution (PBS, 0.5% fish skin gelatin, 0.05% Tween-20) for approximately one hour. The blocking solution was then removed and the plates were then incubated with a dilution series of the antibody being tested for approximately one hour. At the end of this incubation, the plate was washed three times with wash buffer and further incubated with a secondary antibody containing solution (Peroxidase conjugated AffmiPure™ F(ab′)₂ fragment goat anti-human IgG, Fc fragment specific (Jackson Immunoresearch) for approximately 45 minutes and washed three times. Next a substrate solution (TMB peroxidase substrate, BioFx®, SurModics, Eden Prairie, Minn.) was added and incubated for 3 to 5 minutes in the dark. The reaction was stopped by addition of 0.5 M HCl and the plate was read at 450 nm in a plate-reader.

[8] = biological target: T1, human ACTH 1-39; assay: cell-based or functional assay
[9] = biological target: T1, human ACTH 1-39; assay: SPR ProteOn, antibody immobilised
Procedure: as §1

[10] = biological target: T3, human ACTH 1-13; assay: SPR ProteOn, antibody immobilised; SPR, antibody on the chip, alpha-MSH alone (Table 6)
Procedure: as §1

[11] = biological target: T5, N-term biotinylated human ACTH 1-39; assay: competition HTRF, biotinylated human ACTH 1-39 in the presence of ACTH 1-13 and ACTH 18-39 at 1X (55 nM each, [p-2038])
Procedure: (§2) Twenty microliters of Eu3+cryptate labeled anti-hu Fc donor and 20 μl of d2-labeled streptavidin acceptor were added to each well and incubated for 1 hour at room temperature. Fluorescence was measured at […] with a delay of 300 μsec.

[12] = biological target: T5, N-term biotinylated human ACTH 1-39; assay: competition HTRF, biotinylated human ACTH 1-39 in the presence of ACTH 1-13 and ACTH 18-39 at 10X (550 nM each, [p-2038])
Procedure: as §2

| Binder | MC2R IC50 [1] | MC1R IC50 [2] | MC3R IC50 [3] | MC4R IC50 [3] | MC5R IC50 [3] | IC50 (nM), cAMP in MC2R cells [4] | koff [5] | Kd [6] | koff [6] | kon [6] | EC50 [7] | Y1 Cells IC50 [8] | Kd [9] | koff [9] | kon [9] | Kd [10] | koff [10] | kon [10] | EC50 (read off the curve) [11] | EC50 (read off the curve) [12] |
| --- | --- | --- | --- | --- | --- | --- | --- | --- | --- | --- | --- | --- | --- | --- | --- | --- | --- | --- | --- | --- |
| B1 | 0.25 nM | 3.62 nM | 79 nM | 54.5 nM | 1100 nM | 1.3 nM | > 0.1 s⁻¹ | 31 nM | 0.026 s⁻¹ | 840000 M⁻¹ s⁻¹ | 0.42 nM |  |  |  |  |  |  |  |  |  |
| B2 | 0.29 nM | 4.12 nM | 58.7 nM | 54.2 nM | 1100 nM | 0.8 nM | > 0.1 s⁻¹ | 25 nM | 0.0085 s⁻¹ | 340000 M⁻¹ s⁻¹ | 0.24 nM | 7.72 nM |  |  |  |  |  |  |  |  |
| B3 | 0.11 nM | 1.96 nM | 58.1 nM | 43.4 nM | 1000 nM |  |  |  | > 0.1 s⁻¹ |  | 1.5 nM | 3.49 nM | 0.064 nM | 6.4e-05 s⁻¹ | 1e+06 M⁻¹ s⁻¹ | 55 nM | 0.014 s⁻¹ | 260000 M⁻¹ s⁻¹ | ~2 nM | ~3 nM |
| B4 | 0.03 nM | 1.04 nM | 62.8 nM | 55.2 nM | 1000 nM | 0.1 nM |  |  | > 0.1 s⁻¹ |  | 2 nM | 1.44 nM | 0.019 nM | 1.9e-05 s⁻¹ | 1e+06 M⁻¹ s⁻¹ | 16 nM | 0.0052 s⁻¹ | 330000 M⁻¹ s⁻¹ |  |  |
